Data as given in FireProtDB (doi:10.1016/j.jmb.2009.04.068).
Values joined by “and” are separate entries in the source; they are usually repeats but may differ in a detail not shown here. Identical values can stand only once.

B1: Neurotensin receptor type 1, P20789 (parent)
chain: MHLNSSVPQGTPGEPDAQPFSGPQSEMEATFLALSLSNGSGNTSESDTAGPNSDLDVNTDIYSKVLVTAIYLALFVVGTVGNSVTAFTLARKKSLQSLQSTVHYHLGSLALSDLLILLLAMPVELYNFIWVHHPWAFGDAGCRGYYFLRDACTYATALNVASLSVERYLAICHPFKAKTLMSRSRTKKFISAIWLASALLAIPMLFTMGLQNRSGDGTHPGGLVCTPIVDTATVKVVIQVNTFMSFLFPMLVISILNTVIANKLTVMVHQAAEQGRVCTVGTHNGLEHSTFNMTIEPGRVQALRHGVLVLRAVVIAFVVCWLPYHVRRLMFCYISDEQWTTFLFDFYHYFYMLTNALFYVSSAINPILYNLVSANFRQVFLSTLACLCPGWRHRRKKRPTFSRKPNSMSSNHAFSTSATRETLY

Variants of: B1
Conditions: Rattus norvegicus; pH 7.4; Heat treatment; Activity; Tris-HCl 50 mM; structure 4BUO; whole UniProt chain shown

Row | Variant | Tm | change of melting temperature, mutant - wild type (higher = more stable) [°C]
1 | F358A A86L I260A | 49 °C | 
2 | F358A A86L H103A I260A | 49 °C | 
3 | F358A H103A I260A F342A | 50 °C | 
4 | A86L | 37 °C and 39 °C | 
5 | A86L F358A | 48 °C | 
6 | F358A |  | 7
7 | H103A | 34 °C and 36 °C | 
8 | A86L I260A F342A | 47 °C | 
9 | F358A A86L H103A F342A | 50 °C | 
10 | A86L I260A F342A F358A | 50 °C | 
11 | F358A A86L H103A | 48 °C | 
12 | F358A A86L H103A I260A F342A | 50 °C | 

Same assay, conditions: Rattus norvegicus; pH 7.4; Thermal; Activity; Tris-HCl 50 mM; structure 4BUO; whole UniProt chain shown

Row | Variant | Tm [°C] | change of melting temperature, mutant - wild type (higher = more stable)
13 | A86L | 33 | 8 °C
14 | A86L F358A |  | 11 °C and 10 °C
15 | F358A |  | 3 °C and 8 °C
